Tests used:
[1] = biological target: T1, recombinant B7H6 extracellular region Fc fusion protein (human); experiment: ELISA, B7H6-Fc coated at 1 ug/mL, HRP mouse anti-human IgG (Fab-specific) secondary antibody, OD450
T1 construct: also called B7H6-Fc; B7H6-Fc fusion protein
Protocol: The ELISA assay was used to detect the binding characteristics of the humanized B7H6 antibody. The B7H6 extracellular region Fc fusion protein (B7H6-Fc) described above was coated into a 96-well plate. The signal strength after antibody addition was used to determine the binding characteristics of antibodies and B7H6.
The B7H6-Fc fusion protein (amino acid sequence as set forth in SEQ ID NO. 22) was diluted to 1 μg/mL with PBS buffer and added to a 96-well plate in a volume of 100 μL/well and left overnight at 4° C. The PBS buffer solution was sucked off from the 96-well plate. The plate was washed 6 times with PBST (pH 7.2, PBS containing 0.1% Tween 20) buffer solution. 200 μL/well PBS/10% BSA was added and incubated at 37° C. for 2 hours for blocking. The blocking solution was removed. The plate was washed 6 times with PBST. B7H6 antibody to be tested which diluted with PBST/0.05% BSA to an appropriate concentration was added at 100 µL/well, and incubated at 37° C. for 1 h. The reaction system was removed. The plate was washed 6 times with PBST. HRP (horseradish peroxidase)-labeled mouse anti-human IgG (Fab-specific) secondary antibody (Sigma) was diluted with PBST/0.05% BSA at 100 μL/well and incubated for 1 h at 37° C. The plate was washed 6 times with PBST, and 80 μL/well TMB (tetramethylbenzidine) was added. […] The absorbance at […] was read with a microplate reader.

[2] = biological target: T2, B7H6 protein overexpressed in HL60 cells (human, UniProt Q68D85 25-454); experiment: flow cytometry on HL60-B7H6 cells, Alexa-647 mouse anti-human IgG-Fc secondary antibody, binding ratio (%)
T2 construct: Full-length entry expressed from a lentiviral vector; also called HL60-B7H6
T2 sequence: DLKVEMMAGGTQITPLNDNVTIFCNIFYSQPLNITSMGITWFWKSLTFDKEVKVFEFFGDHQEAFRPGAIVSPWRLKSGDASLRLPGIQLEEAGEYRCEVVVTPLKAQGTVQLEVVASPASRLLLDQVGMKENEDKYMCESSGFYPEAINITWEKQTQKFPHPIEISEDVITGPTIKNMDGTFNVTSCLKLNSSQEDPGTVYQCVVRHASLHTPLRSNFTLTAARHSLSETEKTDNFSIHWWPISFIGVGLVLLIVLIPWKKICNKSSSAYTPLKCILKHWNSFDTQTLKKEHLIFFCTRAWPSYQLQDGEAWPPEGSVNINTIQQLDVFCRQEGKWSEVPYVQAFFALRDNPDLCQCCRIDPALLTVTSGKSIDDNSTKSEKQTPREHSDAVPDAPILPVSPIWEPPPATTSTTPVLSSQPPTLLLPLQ
Protocol: The flow cytometry assay was used to detect the binding characteristics of the B7H6 antibody. The B7H6 protein (HL60-B7H6) was overexpressed in HL60 cells (ATCC No. CCL-240) (as shown in Example 3), and the signal strength after antibody addition was used to determine the binding characteristics of the antibody and B7H6.
HL60-B7H6 cells were diluted to 2×10⁶/mL with PBS and added to a 1.5 mL EP tube in a volume of 100 μL/tube. 10 μL/tube of mouse serum was added thereto and was blocked at 4° C. for 30 min. The humanized B7H6 antibody was added at 1 μg/tube and incubated for 30 min at 4° C. The EP tube was added with 1 mL of PBS and centrifuged at 3500 rpm at 4° C. for 5 min. The supernatant was discarded and the precipitate was washed once more with PBS. After centrifugation, the supernatant was discarded. The cells were resuspended with 100 μL/tube of PBS, 1 μL/tube of Alexa-647-labeled mouse anti-human IgG-Fc secondary antibody (Biolegend) was added thereto, and incubated at 4° C., under the condition of avoiding light, for 30 min. The cell-containing precipitate was washed twice with PBS and the supernatant was discarded after centrifugation. The cells were resuspended with 200 μL/tube of PBS and detected by flow cytometry.

[3] = biological target: T3, recombinant Cynomolgus monkey B7H6 extracellular region Fc fusion protein (Cynomolgus monkey); experiment: ELISA, cynoB7H6-Fc coated at 1 ug/mL, HRP mouse anti-human IgG (Fab-specific) secondary antibody, OD450
T3 construct: also called cynoB7H6-Fc; cynoB7H6-Fc fusion protein
T3 sequence (chain, as listed by the source limits assumed): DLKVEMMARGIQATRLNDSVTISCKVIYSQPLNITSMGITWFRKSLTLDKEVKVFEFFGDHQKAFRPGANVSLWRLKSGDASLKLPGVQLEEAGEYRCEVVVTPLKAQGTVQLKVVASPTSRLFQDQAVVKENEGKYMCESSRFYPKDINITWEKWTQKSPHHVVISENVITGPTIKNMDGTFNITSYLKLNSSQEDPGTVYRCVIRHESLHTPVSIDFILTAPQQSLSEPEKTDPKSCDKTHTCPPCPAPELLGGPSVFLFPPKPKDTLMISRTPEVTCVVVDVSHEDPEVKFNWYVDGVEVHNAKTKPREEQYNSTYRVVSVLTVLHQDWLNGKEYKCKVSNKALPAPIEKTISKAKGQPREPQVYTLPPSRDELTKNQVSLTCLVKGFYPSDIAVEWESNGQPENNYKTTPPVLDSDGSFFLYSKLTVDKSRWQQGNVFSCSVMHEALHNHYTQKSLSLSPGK
Protocol: The ELISA assay was used to detect the binding characteristics of the humanized B7H6 antibody. The Cynomolgus monkey B7H6 extracellular Fc fusion protein (cynoB7H6-Fc) was coated into a 96-well plate. The signal strength after antibody addition was used to determine the binding characteristics of the antibody and monkey B7H6.
The cynoB7H6-Fc fusion protein (amino acid sequence as set forth in SEQ ID NO. 23) was diluted to 1 μg/mL with PBS buffer and added to a 96-well plate in a volume of 100 μL/well and left overnight at 4° C. The PBS buffer solution was sucked off from the 96-well plate. The plate was washed 6 times with PBST (pH 7.2, PBS containing 0.1% Tween 20) buffer solution. 200 μL/well of PBS/10% BSA was added and incubated at 37° C. for 2 hours for blocking. The blocking solution was removed. The plate was washed 6 times with PBST. B7H6 antibody to be tested which was diluted with PBST/0.05% BSA to an appropriate concentration was added at 100 µL/well, and incubated at 37° C. for 1 h. The reaction system was removed. The plate was washed 6 times with PBST. HRP (horseradish peroxidase)-labeled mouse anti-human IgG (Fab-specific) secondary antibody (Sigma) was diluted with PBST/0.05% BSA at 100 μL/well and incubated for 1 h at 37° C. […] The absorbance at […] was read with a microplate reader.

[4] = biological target: T2, B7H6 protein overexpressed in HL60 cells; experiment: flow cytometry on HL60-B7H6 cells, Alexa-647 goat anti-mouse secondary antibody, binding ratio (%)
Protocol: The flow cytometry assay was used to detect the binding characteristics of B7H6 antibody and to overexpress B7H6 protein (HL60-B7H6, SEQ ID NO. 21; SEQ ID NO. 54) in HL60 cells (ATCC NO. CCL-240). The expression vector is pLVX-EF1a-B7H6-IRES-ZsGreen, and the signal strength after antibody addition is used to determine the binding characteristics of the antibody and B7H6.
HL60-B7H6 cells were diluted to 2×10⁶/mL with PBS and were added to a 1.5 ml EP tube at 100 μL/tube. Goat serum at 10 μL/tube was added thereto and was blocked at 4° C. for 30 min. The B7H6 antibody was added at 1 μg/tube and incubated for 30 min at 4° C. The EP tube was added with 1 mL of PBS and centrifuged at 3500 rpm at 4° C. for 5 min. The supernatant was discarded and the precipitate was washed once more with PBS. After centrifugation, the supernatant was discarded, and the cells were resuspended with 100 μl/tube of PBS, and 0.1 μL/tube of goat anti-mouse antibody secondary antibody (Invitrogen) labeled with Alexa-647 was added thereto, and incubated at 4° C., under the condition of avoiding light, for 30 min. The cell-containing precipitate was washed twice with PBS and the supernatant was discarded after centrifugation. The cells were resuspended with 200 μL/tube of PBS and detected by flow cytometry.

[5] = biological target: T1, recombinant B7H6 extracellular region …; experiment: ELISA, B7H6-Fc coated at 1 ug/mL, HRP anti-mouse secondary antibody, OD450
Protocol: The ELISA assay was used to detect the binding characteristics of the B7H6 antibody. The B7H6 extracellular region Fc fusion protein (B7H6-Fc) described above was coated into a 96-well plate. The signal strength after antibody addition was used to determine the binding characteristic of the antibody and B7H6.
The B7H6-Fc fusion protein (amino acid sequence as set forth in SEQ ID NO. 22) was diluted to 1 μg/mL with PBS buffer and added to a 96-well plate in a volume of 100 μL/well and left overnight at 4° C. The PBS buffer solution was sucked off from the 96-well plate. The plate was washed 6 times with PBST (pH 7.2, PBS containing 0.1% Tween 20) buffer solution. 200 μL/well PBS/10% BSA was added and incubated at 37° C. for 2 hours for blocking. The blocking solution was removed. The plate was washed 6 times with PBST. 100 μL/well B7H6 antibody to be tested was diluted to an appropriate concentration with PBST/0.05% BSA, and incubated at 37° C. for 1 h. The reaction system was removed. The plate was washed 6 times with PBST. HRP (horseradish peroxidase)-labeled anti-mouse antibody secondary antibody was diluted with PBST/0.05% BSA at 100 μL/well and incubated for 1 h at 37° ° C. The plate was washed 6 times with PBST and 80 μL/well TMB (tetramethylbenzidine) was added. […] The absorbance at […] was read with a microplate reader.

[6] = biological target: T1, recombinant B7H6 extracellular region …; experiment: SPR, Biacore T200, B7H6-Fc amine-coupled to CM5 chip, antibody injected, 1:1 Langmuir model; murine 12F5
Protocol: (§1) The Biacore method is widely-recognized as an objective method for detecting the mutual affinity and binding kinetics of proteins. The affinity and binding kinetics of the B7H6 antibody of the present disclosure are analyzed and characterized through Biacore T200.
(§2) The B7H6 extracellular segment Fc fusion protein (B7H6-Fc) was covalently attached to a CM5 (GE) chip using standard amino coupling methods. A series of concentration gradients of B7H6 antibody diluted in PBS were then injected with each cycle and regenerated with 10 mM NaOH solution. The antigen-antibody binding kinetics were traced for 3 minutes and the dissociation kinetics were traced for 10 minutes, and the resulting data were analyzed by a 1:1 (Langmuir) binding model using GE's BIAevaluation software.

[7] = biological target: T1, recombinant B7H6 extracellular region …; experiment: SPR, Biacore T200, B7H6-Fc amine-coupled to CM5 chip, antibody injected, 1:1 Langmuir model; murine 12G4
Protocol: as §1, §2

B1: humanized antibody h12F5 (antibody, human IgG1, kappa, V domains shown)
VH: EVQLVQSGAEVKKPGASVKVSCKASGYTFTSYYMYWVRQAPGQGLEWIGEINPSNGGTNFNEKFKSRVTLTVDKSISTAYMELSRLRSDDTAVYYCTRTLYYGNDWYFDVWGQGTTVTVSS
VL: EIVLTQSPDFQSVTPKEKVTITCSASSSVNYMHWYQQKPDQSPKRLIYDTSKLASGVPSRFSGSGSGTDYTLTINSLEAEDAATYYCQQWSSNPVTFGQGTKLEIKR
notes: also called humanized 12F5
EC50 (read off the curve) [1]: ~0.02 µg/mL
EC50 (read off the curve) [2]: ~0.03 µg/mL

B2: humanized antibody h12G4 (antibody, human IgG1, kappa, V domains shown)
VH: EVQLVQSGAEVKKPGASVKVSCKASGYTFTDYNMDWVRQAPGKGLEWIGDINPNNGGTLYNQKFRGRVTLTVDKSISTAYMELSRLRSDDTAVYYCARSEVFYGNYADYWGQGTTVTVSS
VL: DIVLTQTPLSLSVTPGQPASISCKASQSVDYDGDSYMNWYLQKPGQPPQLLIYAASTLHSGVPDRFSGSGSGTDFTLKISRVEAEDVGVYYCQQSKEDPRTFGQGTKLEIKR
notes: also called humanized 12G4
EC50 (read off the curve) [1]: ~0.05 µg/mL
EC50 (read off the curve) [2]: ~0.05 µg/mL
binding result [3]: binds

B3: murine antibody 12F5 (antibody, mouse IgG2a, kappa, V domains shown)
VH: QVQLQQSGAELVKPGASVKLSCKASGYTFTSYYMYWVKQRPGQGLEWIGEINPSNGGTNFNEKFKSKATLTVDKSSSTAYMQLSSLTSEDSAVYYCTRTLYYGNDWYFDVWGAGTTVTVSS
VL: QIVLTQSPAIMSASPGEKVTMTCSASSSVNYMHWYQQKSGTSPKRWIYDTSKLASGVPARFSGSGSGTSYSLTISSMEAEDAATYYCQQWSSNPVTFGAGTKLELKR
notes: also called murine 12F5; B7H6 murine 12F5 antibody
EC50 (read off the curve) [4]: ~0.006 µg/mL
EC50 (read off the curve) [5]: ~0.03 µg/mL
Kd [6]: 2.2 nM

B4: murine antibody 12G4 (antibody, mouse IgG2a, kappa, V domains shown)
VH: EVLLQQSGPEVVKPGASVKITCKASGYTFTDYNMDWVKQSHGKSLEWIGDINPNNGGTLYNQKFRGRVTLIVDKSSSTAYMELRSLTSDDTAVYYCARSEVFYGNYADYWGQGTTLTVSS
VL: DIVLTQSPVSLAVPLGQRATISCKASQSVDYDGDSYMNWYQQKPGQPPKLLIYAASTLHSGIPVRFSGSGSGTDFTLNIHPVEEEDAASYYCQQSKEDPRTFGGGTKLEIKR
notes: also called murine 12G4
Kd [7]: 0.15 nM
EC50 (read off the curve) [4]: ~0.01 µg/mL
EC50 (read off the curve) [5]: ~0.03 µg/mL
